This note sets out measurements from US20250084155A1 (University of Texas, published 2025).

Substitutions are numbered along the chain they refer to. In names and notes the source's numbering stands.

In experiment [1] the target is T1, HSP70 (human HSP70; the antigen of the binning, humanization and variant binding assays) (human, UniProt P0DMV8 1-641, limits assumed).
T1 construct: also called hu HSP70
Kind of experiment: BLI, anti-human Fc capture, antigen dilution series, 1:1 fit. How it is done:
(§1) Further kinetics assays were conducted for select antibody variants. Assays were performed as follows. Antibody variants were immobilized using anti-human Fc onto the surface of a series of biosensors. Antigen was passed over the surface to generate a binding response. Binding data for the antibody: antigen interactions were collected at 25° C. on the biosensors. A dilution series of the antigen was used in the association step, in order to fit results globally and get the best values for ka, kd, and KD. The response data for the binding of antigen to the surface immobilized antibody were fitted to a 1:1 binding model.
A general note: In BLI a coated tip is dipped into the sample, and binding shifts an interference pattern.

Experiment [2] has as its target T1, HSP70 (human HSP70; the antigen of the …). Kind of experiment: BLI, anti-human Fc capture, antigen 100 nM. A digest of the protocol:
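Antibody variants captured on anti-human Fc biosensors at […]; antigen at 100 nM flowed over, 25° C. Captured antigen recorded at 610 s (start of dissociation) and 1495 s (end of dissociation), giving % dissociation.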

For experiment [3] the target is unchanged. Kind of experiment: BLI, antibody on sensor. As for the experimental part: Humanized variants were characterized for binding using biolayer interferometry (BLI). Chimeric antibodies including the murine 77A antigen binding region and human Fe regions were also tested. Antibodies and reagents were diluted out onto microwell plates and loaded into the instrument. Diluted antibodies were first immobilized onto dip-and-read sensors, and then measurements for baselines were acquired. Subsequently, the sensors were dipped into wells containing the antigen in solution, or buffer alone. The change in number of molecules bound to the sensor was quantified by measurement of the shift in the interference pattern of light during each step of the protocol. Mathematical modeling was performed based on those values and the concentrations of reagents used in the assay and used to calculate kinetics values.

For experiment [4] the target is unchanged. Kind of experiment: BLI, anti-human Fc capture, steady state. How it is done: as §1
The target of experiment [5] is T2, recombinant human FcγR2A (human, UniProt P12318 36-218).
T2 sequence (looked up): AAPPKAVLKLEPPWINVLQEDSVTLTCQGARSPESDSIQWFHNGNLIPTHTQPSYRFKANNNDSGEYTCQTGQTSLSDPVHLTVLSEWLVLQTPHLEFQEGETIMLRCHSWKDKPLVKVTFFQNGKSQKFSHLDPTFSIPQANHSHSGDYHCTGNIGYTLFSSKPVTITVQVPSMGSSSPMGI
Kind of experiment: ELISA on coated recombinant human FcγR2A; monomeric antibody; OD 450 nm. How it is done: ELISA assays were performed to assess binding to coated FcγR2A by either the monomeric antibody or the antibody in complex with HSP70. Briefly, the assay was performed by coating plates with recombinant human FcγR2A overnight at 0.3 μg/mL. Plates were then washed three times with 300 μL of 1×PBST, and then blocked using 150 µL of SuperBlock per well for 1 hr. Washing was repeated as before, then the dilution series of any of the antibody variants (referred to as “monomeric antibody”) or any of the or antibody immuno-complexes (hereafter referred to as “77A ICX”) were added. To make each dilution series, the following was performed: HSP70 was held constant, and first prepared at a 2× concentration of 200 nM. Antibody was first prepared at 600 nM (2× starting concentration) for the first well, and then serially diluted in three-fold increments using 1× PBST. For use in the assay as monomeric antibody, 80 μL of each 2× antibody dilution was added to 80 μL of 1×PBST and mixed well by pipette to make a 1× dilution series, with the highest concentration being 300 nM. To form the 77A ICX, 80 μL of each 2× antibody dilution was added to 80 μL of 2× HSP70 and mixed well by pipette. […] Plates were then read on a plate reader at 450 and 540 nm wavelengths.
A general note: ELISA stands for enzyme-linked immunosorbent assay.

What is called Kd is the free concentration of one partner at which half of the binding sites on the other are occupied at equilibrium, for simple one-to-one binding. A higher Kd goes with a looser complex. In general, koff refers to the first-order rate constant of dissociation. Read a high koff as a short-lived complex. A word on the kon: it is the second-order rate constant of association.

T1 sequence (P0DMV8 whole entry, change not shown): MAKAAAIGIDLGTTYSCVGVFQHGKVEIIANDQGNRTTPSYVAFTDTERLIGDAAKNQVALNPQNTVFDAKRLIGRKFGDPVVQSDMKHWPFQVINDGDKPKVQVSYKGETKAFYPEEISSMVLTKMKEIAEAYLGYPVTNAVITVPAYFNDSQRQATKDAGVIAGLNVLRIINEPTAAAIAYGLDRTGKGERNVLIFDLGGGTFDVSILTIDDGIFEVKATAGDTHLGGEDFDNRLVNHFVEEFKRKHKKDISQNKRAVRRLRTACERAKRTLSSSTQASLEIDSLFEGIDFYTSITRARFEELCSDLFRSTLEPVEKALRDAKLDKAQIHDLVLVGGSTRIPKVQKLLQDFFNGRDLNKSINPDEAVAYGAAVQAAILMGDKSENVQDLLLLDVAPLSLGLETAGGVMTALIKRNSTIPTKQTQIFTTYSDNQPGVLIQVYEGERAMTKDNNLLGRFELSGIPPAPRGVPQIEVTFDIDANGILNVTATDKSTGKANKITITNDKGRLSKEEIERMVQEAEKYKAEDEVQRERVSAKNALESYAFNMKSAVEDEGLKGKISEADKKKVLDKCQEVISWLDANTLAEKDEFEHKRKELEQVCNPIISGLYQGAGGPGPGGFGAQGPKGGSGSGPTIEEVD

B1: h77A-1 (antibody, V domains shown)
VH: QIQLVQSGAEVKKPGASVKVSCKASGYTFTNYGMNWVRQAPGQGLEWMGWINTYTGEPTYADDFKGRFTFTTDTSTSTAYMELRSLRSDDTAVYFCARYDHAMDYWGQGTLVTVSS
VL: EIVLTQSPDSLAVSLGERATINCKSSQSLLNSGTRKNYLAWYQQKAGQSPKLLIYWTSTRESGVPDRFSGSGSGTDFTLTIDSLQAEDVAVYYCKQSYTLYTFGGGTKVEIK
notes: also called hVH-1 + hVL-1
Regarding B1, in experiment [1], binding was characterised by a dissociation constant (Kd) of 2.39 nM, the koff turned out to be 0.000131 s⁻¹ and the kon was found to be 54700 M⁻¹ s⁻¹. Besides, the “% Diss” value in experiment [2] was 7.63%. Moreover, in experiment [3], the Kd is 2.61 nM, the koff came to 0.000173 s⁻¹ and the kon turned out to be 66200 M⁻¹ s⁻¹. For the same molecule, the “KD Steady State” value in experiment [4] stood at 1.2 nM.

B2: h77A-1.61 (antibody, V domains shown)
VH: B1 VH with T110S
VL: B1 VL with Q44K, A46S, T80S
notes: captured by anti-human Fc
B2: in experiment [1], binding was characterised by a dissociation constant (Kd) of 2.91 nM, the koff worked out at 0.000123 s⁻¹ and the kon was found to be 42100 M⁻¹ s⁻¹. In addition, in experiment [2], the “% Diss” value turned out to be 6.66%. Further, in experiment [4], the “KD Steady State” value amounted to 2.1 nM.

B3: h77A-1.94 (antibody, V domains shown)
VH: B1 VH with A61T
VL: B1 VL with L30F, L53I, G70A, T80S, S83R
notes: captured by anti-human Fc
Take B3: in experiment [1], the Kd amounted to 1.85 nM, the koff was determined as 0.000111 s⁻¹ and the kon turned out to be 59900 M⁻¹ s⁻¹. In addition, in experiment [2], the “% Diss” value worked out at 5.24%. Moreover, the “KD Steady State” value in experiment [4] amounted to 1.3 nM.

B4: h77A-1.59 (antibody, V domains shown)
VH: B1 VH with A9P, A61G, A97G
VL: B1 VL with S83R
notes: captured by anti-human Fc
For B4, in experiment [1], the affinity, expressed as Kd, was 2.93 nM; the koff worked out at 0.00012 s⁻¹; the kon is 40800 M⁻¹ s⁻¹. In experiment [2], the “% Diss” value was determined as 9.8%. For the same molecule, the “KD Steady State” value in experiment [4] is 0.74 nM.

B5: h77A-1.75 (antibody, V domains shown)
VH: B1 VH with A9V, A61S, L83V
VL: B1 VL with L30F, T80S
notes: captured by anti-human Fc
In experiment [1], B5 showed a Kd of 0.28 nM, a koff of 2.43e-05 s⁻¹ and a kon of 88100 M⁻¹ s⁻¹. The “% Diss” value in experiment [2] came out at 5.34%. In addition, in experiment [4], the “KD Steady State” value is 0.023 nM.

B6: h77A-1.71 (antibody, V domains shown)
VH: B1 VH with A9S, E82D
VL: B1 VL with A12S, N22K, A86T
notes: captured by anti-human Fc
With B6, in experiment [1], binding was characterised by a dissociation constant (Kd) of 2.51 nM, the koff came to 0.000123 s⁻¹ and the kon stood at 49000 M⁻¹ s⁻¹. Further, the “% Diss” value in experiment [2] is 7.93%. Also, in experiment [4], the “KD Steady State” value was 1.3 nM.

B7: h77A-1.74 (antibody, V domains shown)
VH: B1 VH with A9P, S77T, A79G
VL: B1 VL with N22K, V91I
notes: captured by anti-human Fc
Turning to B7, in experiment [1], the Kd is 1.61 nM, the koff was determined as 0.000125 s⁻¹ and the kon worked out at 77800 M⁻¹ s⁻¹. In addition, in experiment [2], the “% Diss” value came out at 9.07%. The “KD Steady State” value in experiment [4] worked out at 1.7 nM.

B8: h77A-1-G1m3-GAALIE (antibody, human IgG1, kappa)
heavy: QIQLVQSGAEVKKPGASVKVSCKASGYTFTNYGMNWVRQAPGQGLEWMGWINTYTGEPTYADDFKGRFTFTTDTSTSTAYMELRSLRSDDTAVYFCARYDHAMDYWGQGTLVTVSSASTKGPSVFPLAPSSKSTSGGTAALGCLVKDYFPEPVTVSWNSGALTSGVHTFPAVLQSSGLYSLSSVVTVPSSSLGTQTYICNVNHKPSNTKVDKRVEPKSCDKTHTCPPCPAPELLAGPSVFLFPPKPKDTLMISRTPEVTCVVVDVSHEDPEVKFNWYVDGVEVHNAKTKPREEQYNSTYRVVSVLTVLHQDWLNGKEYKCKVSNKALPLPEEKTISKAKGQPREPQVYTLPPSREEMTKNQVSLTCLVKGFYPSDIAVEWESNGQPENNYKTTPPVLDSDGSFFLYSKLTVDKSRWQQGNVFSCSVMHEALHNHYTQKSLSLSPGK
light: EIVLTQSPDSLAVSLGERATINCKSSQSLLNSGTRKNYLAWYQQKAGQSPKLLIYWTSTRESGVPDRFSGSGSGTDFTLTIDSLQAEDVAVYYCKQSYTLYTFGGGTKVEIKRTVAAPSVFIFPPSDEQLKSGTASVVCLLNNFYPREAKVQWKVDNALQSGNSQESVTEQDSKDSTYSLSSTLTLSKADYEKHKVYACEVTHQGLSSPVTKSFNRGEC
notes: IgG1 G236A/A330L/I332E (EU) Fc variant; also called 77A^GAALIE; copies: 2 + 2
For B8, the binding result in experiment [5] is “binds”.
